This assay deals with Mycobacterium thermoresistibile NrdI (Mycobacterium thermoresistibile). Put plainly: cryo-EM structure.

In turn, “Mycobacterium thermoresistibile NrdF2 (enzyme)” had a stoichiometry N (NrdF2 per NrdI) of 2.
